# The supplement of paper PMC10567573
# B1: TBX5 (parent)
# chain: YQNHKITQLKIENNPFAKGFRGSD
# Variants of: B1
# Assay: protein stability index of a GFP-peptide fusion (GPS, HEK-293T) (PSI 1-6); higher = more stable
# Settings: c terminus: a fixed tail appended
# 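Further: lentivirally expressed fusions sorted by FACS into six bins by GFP to DsRed ratio, PSI derived from sequencing read proportions per bin multiplied by bin number.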
row,Variant,protein stability index
1,YSNHKITQLKIENNPFAKGFRGSD [Q2S],3.26
2,YWNHKITQLKIENNPFAKGFRGSD [Q2W],2.04
3,YINHKITQLKIENNPFAKGFRGSD [Q2I],2.19
4,YYNHKITQLKIENNPFAKGFRGSD [Q2Y],2.92
5,YPNHKITQLKIENNPFAKGFRGSD [Q2P],2.63
6,YVNHKITQLKIENNPFAKGFRGSD [Q2V],2.39
7,YKNHKITQLKIENNPFAKGFRGSD [Q2K],2.85
8,YANHKITQLKIENNPFAKGFRGSD [Q2A],1.84
9,YDNHKITQLKIENNPFAKGFRGSD [Q2D],4.02
10,YGNHKITQLKIENNPFAKGFRGSD [Q2G],2.54
11,YLNHKITQLKIENNPFAKGFRGSD [Q2L],2.84
12,YTNHKITQLKIENNPFAKGFRGSD [Q2T],2.4
13,YHNHKITQLKIENNPFAKGFRGSD [Q2H],1.46
14,YFNHKITQLKIENNPFAKGFRGSD [Q2F],2.75
15,YMNHKITQLKIENNPFAKGFRGSD [Q2M],2.61
16,YCNHKITQLKIENNPFAKGFRGSD [Q2C],2.54
17,YENHKITQLKIENNPFAKGFRGSD [Q2E],3.14
18,YRNHKITQLKIENNPFAKGFRGSD [Q2R],2.61
19,NQNHKITQLKIENNPFAKGFRGSD [Y1N],3.35
20,EQNHKITQLKIENNPFAKGFRGSD [Y1E],3.58
21,RQNHKITQLKIENNPFAKGFRGSD [Y1R],3.61
22,QQNHKITQLKIENNPFAKGFRGSD [Y1Q],3.68
23,WQNHKITQLKIENNPFAKGFRGSD [Y1W],2.92
24,MQNHKITQLKIENNPFAKGFRGSD [Y1M],3.79

row,Variant,protein stability index
1,GQNHKITQLKIENNPFAKGFRGSD [Y1G],3.64
2,SQNHKITQLKIENNPFAKGFRGSD [Y1S],2.82
3,PQNHKITQLKIENNPFAKGFRGSD [Y1P],3.52
4,LQNHKITQLKIENNPFAKGFRGSD [Y1L],3.42
5,DQNHKITQLKIENNPFAKGFRGSD [Y1D],3.46
6,IQNHKITQLKIENNPFAKGFRGSD [Y1I],3.32
7,TQNHKITQLKIENNPFAKGFRGSD [Y1T],3.65
8,FQNHKITQLKIENNPFAKGFRGSD [Y1F],2.48
9,VQNHKITQLKIENNPFAKGFRGSD [Y1V],3.22
10,HQNHKITQLKIENNPFAKGFRGSD [Y1H],3.79
11,KQNHKITQLKIENNPFAKGFRGSD [Y1K],3.91
12,AQNHKITQLKIENNPFAKGFRGSD [Y1A],3.46
13,CQNHKITQLKIENNPFAKGFRGSD [Y1C],3.19
14,YQNHMITQLKIENNPFAKGFRGSD [K5M],2
15,YQNHVITQLKIENNPFAKGFRGSD [K5V],2.44
16,YQNHSITQLKIENNPFAKGFRGSD [K5S],2.21
17,YQNHLITQLKIENNPFAKGFRGSD [K5L],2.18
18,YQNHCITQLKIENNPFAKGFRGSD [K5C],2.15
19,YQNHYITQLKIENNPFAKGFRGSD [K5Y],1.95
20,YQNHNITQLKIENNPFAKGFRGSD [K5N],2.59
21,YQNHFITQLKIENNPFAKGFRGSD [K5F],1.84
22,YQNHAITQLKIENNPFAKGFRGSD [K5A],2.7
23,YQNHTITQLKIENNPFAKGFRGSD [K5T],2.44
24,YQNHPITQLKIENNPFAKGFRGSD [K5P],2.77

row,Variant,protein stability index
1,YQNHRITQLKIENNPFAKGFRGSD [K5R],2.38
2,YQNHQITQLKIENNPFAKGFRGSD [K5Q],2.81
3,YQNHDITQLKIENNPFAKGFRGSD [K5D],3.06
4,YQNHEITQLKIENNPFAKGFRGSD [K5E],2.98
5,YQNHIITQLKIENNPFAKGFRGSD [K5I],1.51
6,YQNHWITQLKIENNPFAKGFRGSD [K5W],2.64
7,YQNHGITQLKIENNPFAKGFRGSD [K5G],2.57
8,YQNHHITQLKIENNPFAKGFRGSD [K5H],2.03
9,YQNHKATQLKIENNPFAKGFRGSD [I6A],3.47
10,YQNHKHTQLKIENNPFAKGFRGSD [I6H],2.83
11,YQNHKCTQLKIENNPFAKGFRGSD [I6C],2.36
12,YQNHKVTQLKIENNPFAKGFRGSD [I6V],2.4
13,YQNHKGTQLKIENNPFAKGFRGSD [I6G],2.3
14,YQNHKSTQLKIENNPFAKGFRGSD [I6S],3.04
15,YQNHKQTQLKIENNPFAKGFRGSD [I6Q],2.98
16,YQNHKMTQLKIENNPFAKGFRGSD [I6M],2.7
17,YQNHKWTQLKIENNPFAKGFRGSD [I6W],4.36
18,YQNHKDTQLKIENNPFAKGFRGSD [I6D],3.53
19,YQNHKETQLKIENNPFAKGFRGSD [I6E],3.16
20,YQNHKYTQLKIENNPFAKGFRGSD [I6Y],2.53
21,YQNHKLTQLKIENNPFAKGFRGSD [I6L],2.45
22,YQNHKPTQLKIENNPFAKGFRGSD [I6P],2.8
23,YQNHKKTQLKIENNPFAKGFRGSD [I6K],3.27
24,YQNHKNTQLKIENNPFAKGFRGSD [I6N],3.09

row,Variant,protein stability index
1,YQNHKTTQLKIENNPFAKGFRGSD [I6T],3.06
2,YQNHKFTQLKIENNPFAKGFRGSD [I6F],2.45
3,YQNHKRTQLKIENNPFAKGFRGSD [I6R],2.79
4,YQNHKITQPKIENNPFAKGFRGSD [L9P],2.84
5,YQNHKITQMKIENNPFAKGFRGSD [L9M],2.58
6,YQNHKITQSKIENNPFAKGFRGSD [L9S],3.07
7,YQNHKITQIKIENNPFAKGFRGSD [L9I],2.73
8,YQNHKITQCKIENNPFAKGFRGSD [L9C],2.02
9,YQNHKITQFKIENNPFAKGFRGSD [L9F],2.26
10,YQNHKITQGKIENNPFAKGFRGSD [L9G],2.35
11,YQNHKITQKKIENNPFAKGFRGSD [L9K],2.81
12,YQNHKITQYKIENNPFAKGFRGSD [L9Y],2.31
13,YQNHKITQAKIENNPFAKGFRGSD [L9A],2.83
14,YQNHKITQQKIENNPFAKGFRGSD [L9Q],3.19
15,YQNHKITQEKIENNPFAKGFRGSD [L9E],3.09
16,YQNHKITQHKIENNPFAKGFRGSD [L9H],2.38
17,YQNHKITQNKIENNPFAKGFRGSD [L9N],3.01
18,YQNHKITQTKIENNPFAKGFRGSD [L9T],2.37
19,YQNHKITQWKIENNPFAKGFRGSD [L9W],1.71
20,YQNHKITQVKIENNPFAKGFRGSD [L9V],4.05
21,YQNHKITQDKIENNPFAKGFRGSD [L9D],3.21
22,YQNHKITQRKIENNPFAKGFRGSD [L9R],3.54
